3 molecules from patent publication US12258605B2, “Alkane oxidation by modified hydroxylases” (The California Institute of Technology, priority 2005, dated 2025) can be followed below.

Type in all cases: biochemical
Series [1] can be described thus: High-throughput dimethyl ether (DME) screen. The note with it: relative to 35-E11; normalized to P450 concentration. The protocol:
Cell lysates for high throughput screening were prepared as described previously (Peters et al., J. Am. Chem. Soc. 125:13442 (2003); incorporated by reference herein). High-throughput dimethyl ether (DME) screens were performed in 96 well plates as described previously. Improved mutants were selected based on an increased signal compared to 9-10A (for the saturation mutagenesis libraries) and 1-12G (for the recombination library). Reactions on octane and propane were analyzed by gas chromatography as described.
Libraries of mutants of 35-E11 were screened for phenotypes indicative of either increased product formation on small gaseous substrates slightly larger than methane. Additionally, they were screened for increased coupling of the consumption of NADPH reducing equivalents to product formation. Product formation was determined by measuring total amount of dimethyl ether hydroxylation while increased coupling was determined primarily by decreased background NADPH consumption rates (measured spectrophotometrically at 340 nm in the absence of substrate).
The relative dimethyl ether (DME) activity was measured, 1 hour after treatment with Purpald, as the average net and absorbance at 550 nm from 8 microtitre plate DME reactions of the mutant compared to 8 equivalent reactions of 35-E11. All values were normalized by measuring the P450 concentration in each well with CO binding. “Asteriks” indicate criteria used to select mutants from libraries for further characterization. The oxidation rate is measured as absorbance change at 340 nm over 1 minute upon the addition of NADPH to 8 microtitre plate wells containing P450-containing cell lysate and compared to 8 equivalent reactions of 35-E11. All values were normalized by measuring the P450 concentration in each well with CO binding. The total turnover number (TTN) was measured as the absorbance at 550 nm of methane reactions with each mutant after treatment with alcohol oxidase and
Screening libraries by spectroscopically monitoring NADPH consumption rates in the presence of the alkane often selects for mutants with NADPH oxidation rates highly uncoupled to product formation. This can be overcome through the use of surrogate substrates that mimic desired substrates, yet yield species when hydroxylated that are easily detected either directly or with the addition of a dye. For example, the screen for the high-throughput identification of mutant BM-3 enzymes with activity towards propane as described previously uses dimethyl ether (DME) as a propane surrogate substrate. Upon hydroxylation, it decomposes into methanol and dye-sensitive formaldehyde. In addition, hexyl methyl ether (HME) may be used as a surrogate for octane. It shares most of the physical properties of octane, including solubility in buffer, size, shape, and strength of its C—H bonds. When HME is hydroxylated at its methoxy carbon, it also produces an equivalent of formaldehyde which is visually detected at concentrations as low as 10 μM with the dye Purpald (see FIG. 25). Hexanal, the aldehyde product formed when the α-carbon of the hexyl group is hydroxylated, is practically unreactive towards Purpald at some concentrations used in the present screens. Formaldehyde is approximately 42 times more sensitive to Purpald than hexanal (see FIG. 26). This disproportionate response makes HME, in contrast to the symmetric ether DME, a regio-selective screen for terminal alkane hydroxylation.
High-throughput screening. Single colonies were picked and inoculated by a Qpix robot (Genetix, Beaverton, OR) into 1-mL, deep-well plates containing LB (Amp*) medium (400 μL). The plates were incubated at 30° C., 250 rpm, and 80% relative humidity. After 24 h, 50 μL from this pre-culture were used to inoculate a 2-mL, deep-well plates containing […] TB (Amp^+) medium per well. Cultures were grown at 37° C., 220 rpm, and 80% relative humidity. […]

Series [2] can be described thus: Kinetic constants for n-alkanes: pentane. To be noted: N.a. = not active. The protocol:
(§1) Rate measurements. Initial rates of product formation were determined at 25° C. in 100 mM KPi pH 8.0 buffer using purified protein (100 nM) and a substrate concentration of 1.6 mM. In a 5 mL-vial, 20 μL of alkane solution (in ethanol) were dissolved in 400 μL KPi buffer, to which 500 μL enzyme solution at 100-200 nM was added. Reaction was initiated by adding 100 μL of 5 mM NADPH solution, followed by stirring at 300 rpm for 1 minute, and quenched by adding 200 μL chloroform and stirring at 800 rpm for 10 sec. Solutions were transferred to an Eppendorf tube, to which internal standard (10 μL 25 mM 1-bromohexane in ethanol) was added. Tubes were vortexed for 10 sec and centrifuged for 30 sec at 10,000 g. Organic phase was removed and analyzed by GC. For propane, reactions were carried out in a 5 mL-scale using 100-400 nM purified enzyme, propane-saturated buffer (propane concentration≈1.6 mM) and a final NADPH concentration of 500 μM. Reactions were stopped by addition of 200 μL H2SO4 conc. and analyzed by derivatization to alkyl nitrites followed by GC-ECD analysis as described below.
(§2) Products from alkane reactions were identified and quantified by gas chromatography using authentic standards and calibration curves with internal standards. For the reactions with alkanes from pentane to decane, GC analyses were carried out using a Shimadzu GC-17A gas chromatograph, Agilent HP5 column (30 m×0.32 mm×0.1 μm film), 1 μL injection, FID detector, and the following separation program: 250° C. inlet, 250° C. detector, 50° C. oven for 3 min, 5° C./min gradient to 100° C., 25° C./min gradient to 230° C., and 230° C. for 3 min. For butane and propane (TTN) reactions, GC analyses were carried out using a Hewlett-Packard 5890 Series II Plus gas chromatograph, Supelco SPB-1 column (60 m×0.52 mm×0.5 μm film), 0.5 μL injection, FID detector, and the following separation program: 250° C. inlet, 275° C. detector, 80° C. oven for 2 min, 10° C./min gradient to 110° C., 25° C./min gradient to 275° C., and 275° C. for 2.5 min. For ethane and propane (rate) reactions, analysis of reaction mixtures was carried out by derivatization to alkyl nitrites followed by GC-ECD analysis. For laurate, reaction product analysis was carried out by derivatization with N-methyl-N-trimethylsilylheptafluorobutyramide followed by extraction with hexane. Organic solutions were analyzed by FID-GC.
(§3) To further investigate the evolution of substrate specificity, kinetic constants for the C5 to C8 alkanes were determined from Michaelis-Menten plots (Table 19). The preference of 35E11 and its evolutionary predecessors for medium-chain alkanes is indicated by their high C8/C5 specificities ((kcat/Km)8/(kcat/Km)5˜100), where Km appears to be the major contributing factor. […]

Series [3] can be described thus: Kinetic constants for n-alkanes: hexane. To be noted: N.a. = not active. The protocol: as §1, §2, §3

Numbering of substitutions follows the chain as printed. Numbers in names are those of the source. Marks after values point to notes of the source that are not given here.

B1: 35-E11: P450 BM-3 variant, SEQ ID NO:7: 53-5H substitutions plus E464G and I710T (protein)
chain: TIKEMPQPKTFGELKNLPLLNTDKPVQALMKIADELGEIFKFEAPGCVTRYLSSQRLIKEACDESRFDKNLSQALKFFRDFSGDGLFTSWTHEINWKKAHNILLPSFSQQAMKGYHAMMVDIAVQLVQKWERLNADEHIEVSEDMTRLTLDTIGLCGFNYRFNSFYRDQPHPFIISMVRALDEVMNKLQRANPDDPAYDENKRQCQEDIKVMNDLVDKIIADRKARGEQSDDLLTQMLNGKDPETGEPLDDGNISYQIITFLIAGHETTSGLLSFALYFLVKNPHVLQKVVEEAARVLVDPVPSYKQVKQLKYVGMVLNEALRLWPTFPAFSLYAKEDTVLGGEYPLEKGDEVMVLIPQLHRDKTIWGDDVEEFRPERFENPSAIPQHAFKPFGNGQRACIGQQFALHEATLVLGMMLKHFDFEDHTNYELDIKETLTLKPEGFVVKAKSKKIPLGGIPSPSTGQSAKKVRKKAENAHNTPLLVLYGSNMGTAEGTARDLADIAMSKGFAPQVATLDSHAGNLPREGAVLIVTASYNGHPPDNAKQFVDWLDQASADEVKGVRYSVFGCGDKNWATTYQKVPAFIDETLAAKGAENIADRGEADASDDFEGTYEEWREHMWSDVAAYFNLDIENSEDNKSTLSLQFVDSAADMPLAKMHGAFSTNVVASKELQQPGSARSTRHLEIELPKEASYQEGDHLGVIPRNYEGTVNRVTARFGLDASQQIRLEAEEEKLAHLPLAKTVSVEELLQYVELQDPVTRTQLRAMAAKTVCPPHKVELEALLEKQAYKEQVLAKRLTMLELLEKYPACEMKFSEFIALLPSIRPRYYSISSSPRVDEKQASITVSVVSGEAWSGYGEYKGIASNYLAELQEGDTITCFISTPQSEFTLPKDPETPLIMVGPGTGVAPFRGFVQARKQLKEQGQSLGEAHLYFGCRSPHEDYLYQEELENAQSEGIITLHTAFSRMPNQPKTYVQHVMEQDGKKLIELLDQGAHFYICGDGSQMAPAVEATLMKSYADVHQVSEADARLWLQQLEEKGRYAKDVWAG
modifications: mutant P450 35-E11 protein sequence
In general, Km refers to the concentration of substrate that gives half-maximal velocity. A word on the kcat: it is the number of substrate molecules converted per active site and unit of time at saturation. Take B1: the “Relative DME activity in screen” value in series [1] is recorded as 1. In series [2], the Km stood at 1030 ± 57 µM and the kcat came to 12.7 ± 0.867 s⁻¹. Besides, in series [3], the Km was 370 ± 33 µM and the kcat worked out at 11.8 ± 1.15 s⁻¹.

B2: 20-D3: P450 BM-3 variant, SEQ ID NO:11; 35-E11 plus H285R (protein)
chain: B1 chain with H285R
modifications: mutant P450 20-D3 protein sequence
notes: 35-E11 plus H285R
In the case of B2, in series [1], the “Relative DME activity in screen” value was 1.7*.

B3: P450PMO: P450 BM-3 variant, SEQ ID NO:125; 7-7 plus G443A and D698G; propane monooxygenase (protein)
chain: B1 chain with L52I, A74E, S82G, L188P, I366V, G443A, D698G
modifications: Mutant P450PMO protein sequence
notes: 7-7 plus G443A and D698G; propane monooxygenase
In the case of B3, in series [2], the Km stood at 835 ± 117 µM and the catalytic constant (kcat) was found to be 2.5 ± 0.233 s⁻¹. Also, in series [3], the Michaelis-Menten constant (Km) was 430 ± 91 µM and the kcat came out at 1.42 ± 0.283 s⁻¹.
